Data set [1] deals with T1, A3F-CD2 E251A K352A/K355A/K358A (human, UniProt Q8IUX4 190-373, E251A;K352A;K355A;K358A). Briefly: EMSA. For orientation: A gel shift assay detects complexes by their altered migration in electrophoresis.
For data set [2], the target named is T1, A3F-CD2 E251A K352A/K355A/K358A. Put plainly: EMSA. This is another data set of the same source.
Data set [3] deals with the molecule itself. Put plainly: dynamic light scattering.
Data set [4] deals with the molecule itself. Briefly: dynamic light scattering. The source holds these as a separate data set.
Another data set has as its target A3F-CD2 WT (human, UniProt Q8IUX4 190-373). Put plainly: X-ray crystallography.

Like-named read-outs stand apart in the source and are kept apart here.

Usually stoichiometry N stands for a count of units in the complex or per binding partner.

As to TTTTTTTTTT (ssDNA) [10 nt poly-dT (FAM)], the binding result in data set [1] was “no binding”.

For the molecule AUUAUUAUUAUUUAUCCCUAUUUAUAUUUAUUGUUAUUGUUAUUGUUAUA (ssRNA) [50 nt RNA], the binding result in data set [2] is listed as “no binding”.

B1: wild-type hA3F-CD2 (APOBEC3F C-terminal catalytic domain, residues 190-373) (domain or fragment, human, UniProt Q8IUX4 190-373, looked up)
chain: NPMEAMYPHIFYFHFKNLRKAYGRNESWLCFTMEVVKHHSPVSWKRGVFRNQVDPETHCHAERCFLSWFCDDILSPNTNYEVTWYTSWSPCPECAGEVAEFLARHSNVNLTIFTARLYYFWDTDYQEGLRSLSQEGASVEIMGYKDFKYCWENFVYNDDEPFKPWKGLKYNFLFLDSKLQEILE
As for B1, the “stoichiometry N” value in the data set “dynamic light scattering [3]” is 2; in “dynamic light scattering [4]”, 4.

In the case of TTTTTTTTTT (ssDNA) [10 nt poly-dT (crystal, DLS)], the binding result with A3F-CD2 WT was “binds”.

For the origin of these results see article PMC5738261 (Journal of molecular biology, 2017).
